Laboratory results published in patent US20230406951A1 (Pfizer, published 2023).
Positions count from the first letter of the chain named.

T1: human TNFR2 (human, UniProt P20333 23-461)
T1 construct: expressed on the surface of CHO cells; also called HuTNFR2; TNFRSF1B
T1 sequence: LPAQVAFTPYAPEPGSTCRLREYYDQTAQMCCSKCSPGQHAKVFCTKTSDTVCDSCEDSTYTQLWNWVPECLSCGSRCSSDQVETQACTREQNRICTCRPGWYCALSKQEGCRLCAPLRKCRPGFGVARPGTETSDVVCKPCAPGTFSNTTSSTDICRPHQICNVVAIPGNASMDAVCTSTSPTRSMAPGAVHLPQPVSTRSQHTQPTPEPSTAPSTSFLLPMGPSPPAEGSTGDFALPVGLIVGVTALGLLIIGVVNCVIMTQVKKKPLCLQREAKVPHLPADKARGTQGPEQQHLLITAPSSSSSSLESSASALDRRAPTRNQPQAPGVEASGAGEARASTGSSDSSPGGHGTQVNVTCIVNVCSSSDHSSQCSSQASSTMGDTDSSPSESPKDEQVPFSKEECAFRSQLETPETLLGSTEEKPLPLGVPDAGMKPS

B1: IgG 1942 (antibody, name in Kabat numbering, V domains shown)
VH: QVQLVQSGAEVKKPGASVKVSCKVSGFSFPSSGVDWVRQAPGQGLEWLGVTWGVGSTHYNQKFQGRVTITKDTSKSTVYMELSSLRSEDTAVYYCASGERDEGFVYWGQGTLVTVSS
VL: DIQLTQSPSFLSASVGDRVTITCKASQNVGTAVAWYQQKPGKAPKLLIYAASTLQSGVPSRFSGSGSGTEFTLTISSLQPEDFATYYCLQKSSYPLTFGGGTKVEIKR
notes: IgG
B2: IgG 1943 (antibody, name in Kabat numbering, V domains shown)
VH: B1 VH with R100Q
VL: B1 VL
notes: IgG
B3: IgG 1944 (antibody, name in Kabat numbering, V domains shown)
VH: B1 VH with W52K, V54Q, R100W
VL: B1 VL with K91Y
notes: IgG
B4: IgG 1946 (antibody, name in Kabat numbering, V domains shown)
VH: B1 VH with W52F, G53Q, V54E, R100W
VL: B1 VL with K91Y
notes: IgG
B5: IgG 1947 (antibody, name in Kabat numbering, V domains shown)
VH: B1 VH with W52L, V54H, R100W
VL: B1 VL with K91Y
notes: IgG
B6: IgG 1948 (antibody, name in Kabat numbering, V domains shown)
VH: B1 VH with W52H, V54S, R100W
VL: B1 VL with K91Y
notes: IgG
B7: IgG 1949 (antibody, name in Kabat numbering, V domains shown)
VH: B1 VH with R100S, D101T
VL: B1 VL with K91Y
notes: IgG
B8: IgG 1950 (antibody, name in Kabat numbering, V domains shown)
VH: B1 VH with R100H
VL: B1 VL with K91Y
notes: IgG
B9: IgG 1951 (antibody, name in Kabat numbering, V domains shown)
VH: B1 VH
VL: B1 VL with K91Y
notes: IgG
B10: IgG 1952 (antibody, name in Kabat numbering, V domains shown)
VH: B1 VH with R100Q
VL: B1 VL with K91Y
notes: IgG
B11: IgG 1953 (antibody, name in Kabat numbering, V domains shown)
VH: B1 VH with W52K, V54Q, R100S, D101T
VL: B1 VL with L89Q, K91Y
notes: IgG
B12: IgG 1954 (antibody, name in Kabat numbering, V domains shown)
VH: B1 VH with W52K, V54Q, R100H
VL: B1 VL with L89Q, K91Y
notes: IgG
B13: IgG 1955 (antibody, name in Kabat numbering, V domains shown)
VH: B1 VH with W52K, V54Q
VL: B1 VL with L89Q, K91Y
notes: IgG
B14: IgG 1956 (antibody, name in Kabat numbering, V domains shown)
VH: B1 VH with W52K, V54Q, R100Q
VL: B1 VL with L89Q, K91Y
notes: IgG
B15: IgG 1957 (antibody, name in Kabat numbering, V domains shown)
VH: B1 VH with W52R, V54E, R100S, D101T
VL: B1 VL with L89Q, K91Y
notes: IgG
B16: IgG 1958 (antibody, name in Kabat numbering, V domains shown)
VH: B1 VH with W52R, V54E, R100H
VL: B1 VL with L89Q, K91Y
notes: IgG
B17: IgG 1959 (antibody, name in Kabat numbering, V domains shown)
VH: B1 VH with W52R, V54E
VL: B1 VL with L89Q, K91Y
notes: IgG

Target: T1, human TNFR2
Assay: binding to human TNFR2 CHO cells

Binder	binding result
B1	no binding
B2	no binding
B3	no binding
B4	no binding
B5	no binding
B6	no binding
B7	no binding
B8	no binding
B9	no binding
B10	no binding
B11	no binding
B12	no binding
B13	no binding
B14	no binding
B15	no binding
B16	no binding
B17	no binding
